How the values were obtained:
PD-L1 = target: T1, PD-L1 (human, UniProt Q9NZQ7 19-238, limits assumed); test: FCM or ELISA
T1 construct: The reporter assay used Raji cells expressing human PD-L1

CD137 = target: T2, CD137 (human, UniProt Q07011 24-186); test: CD137 binding by FCM or ELISA
T2 construct: Reporter assays used GS-H2-huCD137 cells expressing human CD137; also called 4-1BB/CD137; huCD137

CD19 = target: T3, CD19 (human, UniProt P15391 20-556); test: cell-based or functional assay
T3 sequence (looked up): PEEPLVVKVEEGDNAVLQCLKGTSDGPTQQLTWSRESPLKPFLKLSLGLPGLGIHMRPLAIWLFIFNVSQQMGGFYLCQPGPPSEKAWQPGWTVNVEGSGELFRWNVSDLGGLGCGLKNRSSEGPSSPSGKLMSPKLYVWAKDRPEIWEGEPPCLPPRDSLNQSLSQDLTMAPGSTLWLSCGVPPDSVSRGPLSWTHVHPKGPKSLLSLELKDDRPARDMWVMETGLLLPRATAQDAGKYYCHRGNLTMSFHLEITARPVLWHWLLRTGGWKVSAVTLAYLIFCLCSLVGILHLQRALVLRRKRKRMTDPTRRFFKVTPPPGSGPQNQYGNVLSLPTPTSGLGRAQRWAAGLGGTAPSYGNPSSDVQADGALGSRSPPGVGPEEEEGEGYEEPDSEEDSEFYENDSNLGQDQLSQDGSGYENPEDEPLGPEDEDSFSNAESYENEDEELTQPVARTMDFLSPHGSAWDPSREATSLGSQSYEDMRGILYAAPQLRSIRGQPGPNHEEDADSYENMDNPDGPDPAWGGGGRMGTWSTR

T1 sequence (Q9NZQ7 19-238 limits assumed): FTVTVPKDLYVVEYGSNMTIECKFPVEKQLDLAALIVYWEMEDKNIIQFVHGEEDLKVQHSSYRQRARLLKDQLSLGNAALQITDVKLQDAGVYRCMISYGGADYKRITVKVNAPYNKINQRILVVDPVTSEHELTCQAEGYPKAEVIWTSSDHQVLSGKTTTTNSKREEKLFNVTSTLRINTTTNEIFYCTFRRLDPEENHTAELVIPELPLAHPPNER

B1: Ly2438 (bispecific antibody)
chain 1: QVQLVQSGAEVKKPGASVKVSCKASGYTFTDFWMSWVRQAPGQGLEWMGQIYPNTGTTHSNEKFKGRVTMTRDTSTSTVYMELSSLRSEDTAVYYCARSYHISTTPNWFAYWGQGTLVTVSSASTKGPSVFPLAPSSKSTSGGTAALGCLVKDYFPEPVTVSWNSGALTSGVHTFPAVLQSSGLYSLSSVVTVPSSSLGTQTYICNVNHKPSNTKVDKKVEPKSCGGGGSGGGGSGGGGSGGGGSEVQLVESGGGLVQPGGSLRLSCAASGFTFTNYGLHWVRQAPGKGLEWVSSISPSGGVTYYRDSVKGRFTISRDNSKNTLYLQMNSLRAEDTAVYYCAKPFLGWGGANWIAHWGQGTLVTVSSGGGGSDKTHTCPPCPAPEAAGPSVFLFPPKPKDTLMISRTPEVTCVVVDVSHEDPEVKFNWYVDGVEVHNAKTKPREEQYNSTYRVVSVLTVLHQDWLNGKEYKCKVSNKALPAPIEKTISKAKGQPREPQVYTLPPSREEMTKNQVSLWCLVKGFYPSDIAVEWESNGQPENNYKTTPPVLDSDGSFFLYSKLTVDKSRWQQGNVFSCSVMHEALHNHYTQKSLSLSPG
chain 2: QVQLVQSGAEVKKPGASVKVSCKASGYTFTDFWMSWVRQAPGQGLEWMGQIYPNTGTTHSNEKFKGRVTMTRDTSTSTVYMELSSLRSEDTAVYYCARSYHISTTPNWFAYWGQGTLVTVSSASTKGPSVFPLAPSSKSTSGGTAALGCLVKDYFPEPVTVSWNSGALTSGVHTFPAVLQSSGLYSLSSVVTVPSSSLGTQTYICNVNHKPSNTKVDKKVEPKSCGGGGSGGGGSGGGGSGGGGSDIQMTQSPSSLSASVGDRVTITCLASEDISNDLAWYQQKPGKAPKLLIYFVDRLLDGVPSRFSGSGSGTDFTLTISSLQPEDFATYYCQQSYKYPPTFGQGTKLEIKGGGGSDKTHTCPPCPAPEAAGPSVFLFPPKPKDTLMISRTPEVTCVVVDVSHEDPEVKFNWYVDGVEVHNAKTKPREEQYNSTYRVVSVLTVLHQDWLNGKEYKCKVSNKALPAPIEKTISKAKGQPREPQVYTLPPSREEMTKNQVSLSCAVKGFYPSDIAVEWESNGQPENNYKTTPPVLDSDGSFFLVSKLTVDKSRWQQGNVFSCSVMHEALHNRFTQKSLSLSPG
light: DIQMTQSPSSLSASVGDRVTITCKASQNVYKKLEWYQQKPGKVPKVLIYHTNILQTGVPSRFSGSGSGTDYTLTISSLQPEDVATYYCYQWNSGPTFGGGTKVEIKRTVAAPSVFIFPPSDEQLKSGTASVVCLLNNFYPREAKVQWKVDNALQSGNSQESVTEQDSKDSTYSLSSTLTLSKADYEKHKVYACEVTHQGLSSPVTKSFNRGEC
notes: PD-L1/CD40: two PD-L1 Fabs (Ly076), central CD40 Fv (TM559)
PD-L1
  binding result: binds

B2: Ly2444 (bispecific antibody, human IgG1, kappa)
chain 1: QVQLVQSGAEVKKPGASVKVSCKASGYTFTDFWMSWVRQAPGQGLEWMGQIYPNTGTTHSNEKFKGRVTMTRDTSTSTVYMELSSLRSEDTAVYYCARSYHISTTPNWFAYWGQGTLVTVSSASTKGPSVFPLAPSSKSTSGGTAALGCLVKDYFPEPVTVSWNSGALTSGVHTFPAVLQSSGLYSLSSVVTVPSSSLGTQTYICNVNHKPSNTKVDKKVEPKSCDKTHTCPPCPAPEAAGPSVFLFPPKPKDTLMISRTPEVTCVVVDVSHEDPEVKFNWYVDGVEVHNAKTKPREEQYNSTYRVVSVLTVLHQDWLNGKEYKCKVSNKALPAPIEKTISKAKGQPREPQVYTLPPSREEMTKNQVSLWCLVKGFYPSDIAVEWESNGQPENNYKTTPPVLDSDGSFFLYSKLTVDKSRWQQGNVFSCSVMHEALHNHYTQKSLSLSPGGGGGSGGGGSGGGGSGGGGSEVQLVESGGGLVQPGGSLRLSCAASGFTFTNYGLHWVRQAPGKGLEWVSSISPSGGVTYYRDSVKGRFTISRDNSKNTLYLQMNSLRAEDTAVYYCAKPFLGWGGANWIAHWGQGTLVTVSS
chain 2: QVQLVQSGAEVKKPGASVKVSCKASGYTFTDFWMSWVRQAPGQGLEWMGQIYPNTGTTHSNEKFKGRVTMTRDTSTSTVYMELSSLRSEDTAVYYCARSYHISTTPNWFAYWGQGTLVTVSSASTKGPSVFPLAPSSKSTSGGTAALGCLVKDYFPEPVTVSWNSGALTSGVHTFPAVLQSSGLYSLSSVVTVPSSSLGTQTYICNVNHKPSNTKVDKKVEPKSCDKTHTCPPCPAPEAAGPSVFLFPPKPKDTLMISRTPEVTCVVVDVSHEDPEVKFNWYVDGVEVHNAKTKPREEQYNSTYRVVSVLTVLHQDWLNGKEYKCKVSNKALPAPIEKTISKAKGQPREPQVYTLPPSREEMTKNQVSLSCAVKGFYPSDIAVEWESNGQPENNYKTTPPVLDSDGSFFLVSKLTVDKSRWQQGNVFSCSVMHEALHNRFTQKSLSLSPGGGGGSGGGGSGGGGSGGGGSDIQMTQSPSSLSASVGDRVTITCLASEDISNDLAWYQQKPGKAPKLLIYFVDRLLDGVPSRFSGSGSGTDFTLTISSLQPEDFATYYCQQSYKYPPTFGQGTKLEIK
light: DIQMTQSPSSLSASVGDRVTITCKASQNVYKKLEWYQQKPGKVPKVLIYHTNILQTGVPSRFSGSGSGTDYTLTISSLQPEDVATYYCYQWNSGPTFGGGTKVEIKRTVAAPSVFIFPPSDEQLKSGTASVVCLLNNFYPREAKVQWKVDNALQSGNSQESVTEQDSKDSTYSLSSTLTLSKADYEKHKVYACEVTHQGLSSPVTKSFNRGEC
notes: PD-L1/CD40: two PD-L1 Fabs (Ly076), terminal CD40 Fv (TM559)
PD-L1
  binding result: binds

B3: Ly1966 (other)
chain 1: QVQLQQSGAELVRPGSSVKISCKASGYAFSSYWMNWVKQRPGQGLEWIGQIWPGDGDTNYNGKFKGKATLTADESSSTAYMQLSSLASEDSAVYFCARRETTTVGRYYYAMDYWGQGTTVTVSSASTKGPSVFPLAPSSKSTSGGTAALGCLVKDYFPEPVTVSWNSGALTSGVHTFPAVLQSSGLYSLSSVVTVPSSSLGTQTYICNVNHKPSNTKVDKKVEPKSCGGGGSGGGGSGGGGSGGGGSEVQLVESGGGLVQPGGSLRLSCAASGFTFSTYAMNWVRQAPGKGLEWVGRIRSKYNNYATYYADSVKGRFTISRDDSKNSLYLQMNSLKTEDTAVYYCVRHGNFGNSYVSWFAYWGQGTLVTVSSGGGGSDKTHTCPPCPAPEAAGPSVFLFPPKPKDTLMISRTPEVTCVVVDVSHEDPEVKFNWYVDGVEVHNAKTKPREEQYNSTYRVVSVLTVLHQDWLNGKEYKCKVSNKALPAPIEKTISKAKGQPREPQVYTLPPSREEMTKNQVSLWCLVKGFYPSDIAVEWESNGQPENNYKTTPPVLDSDGSFFLYSKLTVDKSRWQQGNVFSCSVMHEALHNHYTQKSLSLSPGGGGGSGGGGSGGGGSGGGGSQVQLVQSGAEVKKPGASVKVSCKASGYTFAGFEMHWVRQAPGQGLEWMGAIDPKTGGTDYNQKFKDRVTMTRDTSISTAYMELSRLRSDDTAVYYCARDLGYFDVWGQGTLVTVSS
chain 2: QVQLQQSGAELVRPGSSVKISCKASGYAFSSYWMNWVKQRPGQGLEWIGQIWPGDGDTNYNGKFKGKATLTADESSSTAYMQLSSLASEDSAVYFCARRETTTVGRYYYAMDYWGQGTTVTVSSASTKGPSVFPLAPSSKSTSGGTAALGCLVKDYFPEPVTVSWNSGALTSGVHTFPAVLQSSGLYSLSSVVTVPSSSLGTQTYICNVNHKPSNTKVDKKVEPKSCGGGGSGGGGSGGGGSGGGGSQAVVTQEPSLTVSPGGTVTLTCRSSTGAVTTSNYANWVQQKPGQAPRGLIGGTNKRAPWTPARFSGSLLGGKAALTITGAQAEDEADYYCALWYSNLWVFGGGTKLTVLGGGGSDKTHTCPPCPAPEAAGPSVFLFPPKPKDTLMISRTPEVTCVVVDVSHEDPEVKFNWYVDGVEVHNAKTKPREEQYNSTYRVVSVLTVLHQDWLNGKEYKCKVSNKALPAPIEKTISKAKGQPREPQVYTLPPSREEMTKNQVSLSCAVKGFYPSDIAVEWESNGQPENNYKTTPPVLDSDGSFFLVSKLTVDKSRWQQGNVFSCSVMHEALHNRFTQKSLSLSPGGGGGSGGGGSGGGGSGGGGSDIQMTQSPSSLSASVGDRVTITCRASQDIRSNLNWYQQKPGGAVKLLIYYTSRLHSGVPSRFSGSGSGTDYTLTISSLQPEDFATYFCQQSEKLPRTFGGGTKVEIR
light: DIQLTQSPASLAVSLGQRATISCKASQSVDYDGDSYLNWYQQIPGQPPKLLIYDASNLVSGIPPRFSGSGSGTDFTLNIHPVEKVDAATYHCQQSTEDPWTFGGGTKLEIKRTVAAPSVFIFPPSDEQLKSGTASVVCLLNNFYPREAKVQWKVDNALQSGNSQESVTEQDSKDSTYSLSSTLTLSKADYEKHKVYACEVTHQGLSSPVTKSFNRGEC
notes: Tri-specific CD19/CD3/CD137: two CD19 Fabs, central CD3 Fv, terminal CD137 Fv
CD137
  binding result: binds
CD19
  EC50 of cytotoxicity (LDH release), Raji cells with human PBMCs, 48 hours: 10.8 pM

B4: Ly1967 (other)
chain 1: QVQLQQSGAELVRPGSSVKISCKASGYAFSSYWMNWVKQRPGQGLEWIGQIWPGDGDTNYNGKFKGKATLTADESSSTAYMQLSSLASEDSAVYFCARRETTTVGRYYYAMDYWGQGTTVTVSSASTKGPSVFPLAPSSKSTSGGTAALGCLVKDYFPEPVTVSWNSGALTSGVHTFPAVLQSSGLYSLSSVVTVPSSSLGTQTYICNVNHKPSNTKVDKKVEPKSCGGGGSGGGGSGGGGSGGGGSEVQLVESGGGLVQPGGSLRLSCAASGFTFSTYAMNWVRQAPGKGLEWVGRIRSKYNNYATYYADSVKGRFTISRDDSKNSLYLQMNSLKTEDTAVYYCVRHGNFGNSYVSWFAYWGQGTLVTVSSGGGGSDKTHTCPPCPAPEAAGPSVFLFPPKPKDTLMISRTPEVTCVVVDVSHEDPEVKFNWYVDGVEVHNAKTKPREEQYNSTYRVVSVLTVLHQDWLNGKEYKCKVSNKALPAPIEKTISKAKGQPREPQVYTLPPSREEMTKNQVSLWCLVKGFYPSDIAVEWESNGQPENNYKTTPPVLDSDGSFFLYSKLTVDKSRWQQGNVFSCSVMHEALHNHYTQKSLSLSPGGGGGSGGGGSGGGGSGGGGSQVQLVQSGAEVKKPGASVKVSCKASGYTFAGFEMHWVRQAPGQGLEWMGAIDPKTGGTDYNQKFKDRVTMTRDTSISTAYMELSRLRSDDTAVYYCARDLGYFDVWGQGTLVTVSS
chain 2: QVQLQQSGAELVRPGSSVKISCKASGYAFSSYWMNWVKQRPGQGLEWIGQIWPGDGDTNYNGKFKGKATLTADESSSTAYMQLSSLASEDSAVYFCARRETTTVGRYYYAMDYWGQGTTVTVSSASTKGPSVFPLAPSSKSTSGGTAALGCLVKDYFPEPVTVSWNSGALTSGVHTFPAVLQSSGLYSLSSVVTVPSSSLGTQTYICNVNHKPSNTKVDKKVEPKSCGGGGSGGGGSGGGGSGGGGSQAVVTQEPSLTVSPGGTVTLTCRSSTGAVTTSNYANWVQQKPGQAPRGLIGGTNKRAPWTPARFSGSLLGGKAALTITGAQAEDEADYYCALWYSNLWVFGGGTKLTVLGGGGSDKTHTCPPCPAPEAAGPSVFLFPPKPKDTLMISRTPEVTCVVVDVSHEDPEVKFNWYVDGVEVHNAKTKPREEQYNSTYRVVSVLTVLHQDWLNGKEYKCKVSNKALPAPIEKTISKAKGQPREPQVYTLPPSREEMTKNQVSLSCAVKGFYPSDIAVEWESNGQPENNYKTTPPVLDSDGSFFLVSKLTVDKSRWQQGNVFSCSVMHEALHNHYTQKSLSLSPGGGGGSGGGGSGGGGSGGGGSDIQMTQSPSSLSASVGDRVTITCRASQDIRSNLNWYQQKPGGAVKLLIYYTSRLHSGVPSRFSGSGSGTDYTLTISSLQPEDFATYFCQQSEKLPRTFGGGTKVEIR
light: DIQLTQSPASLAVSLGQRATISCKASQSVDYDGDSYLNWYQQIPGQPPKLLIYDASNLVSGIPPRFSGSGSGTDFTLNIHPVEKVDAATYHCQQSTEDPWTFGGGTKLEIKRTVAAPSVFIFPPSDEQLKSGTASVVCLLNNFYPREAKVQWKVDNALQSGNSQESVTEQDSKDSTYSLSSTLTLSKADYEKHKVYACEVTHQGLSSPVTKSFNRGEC
CD137
  binding result: binds
CD19
  EC50 of cytotoxicity (LDH release), Raji cells with human PBMCs, 48 hours: 8.9 pM
